Nine molecules from US20040203002 (published 2004) can be followed below.

Numbering of substitutions follows the chain as printed.

The target in series [1] is T1, Zif268 wildtype (three zinc fingers, phage displayed) (Mus musculus, UniProt P08046 P08046:333-421). Put plainly: ELONA; apparent Kd, phage ELISA, PBS/Zn, RT. In general terms: In an ELISA, binding on a coated surface is turned into a signal by an enzyme label.
For series [2], the target named is T1, Zif268 wildtype (three zinc fingers, …). Put plainly: apparent Kd interpolated from microarray signal 0.085.
For series [3] the target is unchanged. As to the kind of experiment: apparent Kd interpolated from microarray signal 0.320.
Series [4] shares this target. Put plainly: apparent Kd interpolated from microarray signal 0.150.
For series [5] the target is unchanged. As to the kind of experiment: ELONA; negative control; apparent Kd; microarray signal 0.052.
Series [6] has the same target. Put plainly: apparent Kd interpolated from microarray signal 0.372.

B1: Zif268 site TAG (dsDNA)
DNA 1: TATATAGCGTAGGCGTATATATCAAGTCAATCGGTCC
DNA 2: GGACCGATTGACTTGATATATACGCCTACGCTATATA
modifications: [none]
With B1, the Kd in series [1] was 6.7 nM.

B2: Zif268 site TCG (dsDNA)
DNA 1: B1 DNA 1 with A11C
DNA 2: B1 DNA 2 with T27G
modifications: [none]
With B2, in series [2], the Kd was 180 nM.

B3: Zif268 site CGG (dsDNA)
DNA 1: B1 DNA 1 with T10C, A11G
DNA 2: B1 DNA 2 with T27C, A28G
modifications: [none]
B3: the Kd in series [3] is 35 nM.

B4: Zif268 site GAG (dsDNA)
DNA 1: B1 DNA 1 with T10G
DNA 2: B1 DNA 2 with A28C
modifications: [none]
On to B4, for which the Kd in series [4] turned out to be 75 nM.

B5: Zif268 site AAA (dsDNA)
DNA 1: B1 DNA 1 with T10A, G12A
DNA 2: B1 DNA 2 with C26T, A28T
modifications: [none]
For the molecule B5, the Kd in series [5] was more than 5000 nM.

B6: Zif268 site GGG (dsDNA)
DNA 1: B1 DNA 1 with T10G, A11G
DNA 2: B1 DNA 2 with T27C, A28C
modifications: [none]
For the molecule B6, the Kd in series [6] turned out to be 28 nM.

B7: Zif268 site AGG (dsDNA)
DNA 1: B1 DNA 1 with T10A, A11G
DNA 2: B1 DNA 2 with T27C, A28T
modifications: [none]
In the case of B7, the Kd in series [1] is 54 nM.

B8: Zif268 site CAG (dsDNA)
DNA 1: B1 DNA 1 with T10C
DNA 2: B1 DNA 2 with A28G
modifications: [none]
In the case of B8, the Kd in series [1] was found to be 380 nM.

B9: Zif268 site TTG (dsDNA)
DNA 1: B1 DNA 1 with A11T
DNA 2: B1 DNA 2 with T27A
modifications: [none]
B9: the Kd in series [1] stood at 71 nM.
